The source of these data is patent US12458681B2, “Compositions and method for treating acute radiation syndrome” (Prince Biotech, LLC, priority 2014, dated 2025).

Assay [1] concerns the target Insulin-degrading enzyme (IDE) (Homo sapiens, UniProt P14735). Nature of the assay: Differential Shift Assay of PIF mutants. The assay is classed as binding. From the text:
Thus 2 putative mutants were conceived, mutant-1: P6→E6, and mutant-3:[…]; c. Table represent the mutants that were considered, of them 2 were synthesized based on their putative availability as options for ligand-receptor disruptors.

For assay [2], the system named is NOD mice. The settings on record: adoptive transfer and spontaneous disease, long term; cited from earlier work.

Take MVRGKPGSANKPSDD [mut3]: in assay [1], the “binding to IDE” value is listed as “bind”. Same read-out and setting: then MVRIKEGSANKPSDD [mut1], with “bind”.

With GRVDPSNKSMPKDIA [PTFscr], in assay [2], the diabetes development entry was “no effect”.
